Source: patent publication US20230110994A1, “CONJUGATES UNDERGOING INTRAMOLECULAR REARRANGEMENTS” (Ascendis Pharma A/S, priority 2020, published 2023)

Test: Plasma pharmacokinetics of HHC^MET in Wistar rats (sandwich ELISA)
Type: in vivo
Settings: n = 3
Description: This study was performed in order to investigate the plasma pharmacokinetics of HHC^MET in Wistar rats following subcutaneous and intramuscular administration of transient HHC^MET-linker hydrogel prodrug 32 or following subcutaneous or intravenous administration of free HHC^MET. Animals (n=3 per group) received either a single SC injection in the neck region or a single IM injection in the thigh musculature of a formulation of 32 (10 mg/kg HHC^MET equivalents) or a single SC injection in the neck region or IV injection in the tail vein of an HHC^MET formulation (10 mg/kg HHC^MET). At selected time points, 200 μL blood were collected in Li-Heparin tubes and processed to plasma by centrifugation at 3,000 g for 10 minutes at 4° C. HHC^MET concentrations in rat plasma were determined with an in-house developed sandwich ELISA setup. For capturing HHC^MET, a human CTLA-4 (AA Ala37-Ser160)-Fc Tag fusion protein (Supplier AcroBiosystem, Newark, Del.; USA, catalog no. CT4-H5255) was coated to the ELISA plate wells and read-out was performed via a rabbit anti-camelid VHH antibody conjugated with horseradish peroxidase (supplier Genscript, Piscataway, N.J., USA, catalog no. A01861-200).
Calibration standards of HHC^MET in blank plasma were prepared as follows: thawed Li-Heparin Wistar rat plasma was homogenized. The free HHC^MET formulation was spiked into blank plasma at concentrations between 96.0 ng/mL and 3.00 ng/mL with additional higher and lower anchor points. These solutions were used for the generation of a calibration curve. Calibration curves were analyzed via a 4-parameter […] fit and 1/Y weighted. Calibration curves were confirmed via separately prepared quality control standards at 10, 40 and 80 ng/mL.

B1: HHC^MET: custom made protein of SEQ ID NO:1, expressed from E. coli (protein)
chain: EVQLVESGGGLVQAGGSLRLSCAASGGTFSFYGMGWFRQAPGKEQEFVADIRTSAGRTYYADSVKGRFTISRDNAKNTVYLQMNSLKPEDTAVYYCAAEMSGISGWDYWGQGTQVTVSSGGGGSGGGSEVQLVESGGGLVQAGGSLRLSCAASGGTFSFYGMGWFRQAPGKEQEFVADIRTSAGRTYYADSVKGRFTISRDNAKNTVYLQMNSLKPEDTAVYYCAAEMSGISGWDYWGQGTQVTVSS
modifications: nanobody
In the case of B1, the “mean HHC^MET concentration in plasma” value (intravenous, 10 mg/kg, 0.25 h) is reported as 17400 ng/mL, the “mean HHC^MET concentration in plasma” value (intravenous, 10 mg/kg, 1 h) is reported as 3530 ng/mL and the “mean HHC^MET concentration in plasma” value (intravenous, 10 mg/kg, 4 h) is reported as 1720 ng/mL. For the same molecule, the “mean HHC^MET concentration in plasma” value (intravenous, 10 mg/kg, 24 h) was 8.27 ng/mL, the “mean HHC^MET concentration in plasma” value (intravenous, 10 mg/kg, 32 h) was “<LLOQ” and the “mean HHC^MET concentration in plasma” value (intravenous, 10 mg/kg, 48 h) was “<LLOQ”. For the same molecule, the “mean HHC^MET concentration in plasma” value (intravenous, 10 mg/kg, 72 h) was 1.15 ng/mL, the “mean HHC^MET concentration in plasma” value (intravenous, 10 mg/kg, 96 h) was “<LLOQ” and the “mean HHC^MET concentration in plasma” value (intravenous, 10 mg/kg, 168 h) was “<LLOQ”. The “mean HHC^MET concentration in plasma” value (subcutaneous, 10 mg/kg HHC^MET (equivalents), 0.25 h) was 2540 ng/mL, the “mean HHC^MET concentration in plasma” value (subcutaneous, 10 mg/kg HHC^MET (equivalents), 1 h) was 5090 ng/mL and the “mean HHC^MET concentration in plasma” value (subcutaneous, 10 mg/kg HHC^MET (equivalents), 4 h) was 2280 ng/mL. For the same molecule, the “mean HHC^MET concentration in plasma” value (subcutaneous, 10 mg/kg HHC^MET (equivalents), 24 h) was 2.60 ng/mL, the “mean HHC^MET concentration in plasma” value (subcutaneous, 10 mg/kg HHC^MET (equivalents), 32 h) was “<LLOQ” and the “mean HHC^MET concentration in plasma” value (subcutaneous, 10 mg/kg HHC^MET (equivalents), 48 h) was “<LLOQ”. The “mean HHC^MET concentration in plasma” value (subcutaneous, 10 mg/kg HHC^MET (equivalents), 72 h) was 2.07 ng/mL, the “mean HHC^MET concentration in plasma” value (subcutaneous, 10 mg/kg HHC^MET (equivalents), 96 h) was “<LLOQ” and the “mean HHC^MET concentration in plasma” value (subcutaneous, 10 mg/kg HHC^MET (equivalents), 168 h) was “<LLOQ”.
